Measured values: PMC6753332

Target: neuropilin-1 (NRP1), wildtype, expressed on BW cells (human) (UniProt O14786)
Experiment: flow cytometry on cells; saturation: BW NRP1 cells with increasing concentrations of monomeric rh-C4Ad, detected with monoclonal C4d antibody and PE goat anti-mouse IgG; Langmuir isotherm for single-class 1:1 binding; apparent KD

Kd: 710 nM
Substance: recombinant human C4Ad (rh-C4Ad) (domain or fragment)
